According to patent US20260028400A1 (AIMED BIO, published 2026):
Where a chain is given by its changes, count along the chain named.

B1: P015042v1-1 (antibody, V domains shown)
VH: EVQLLESGGGLVQPGGSLRLSCAASGFTFSDYAMSWVRQAPGKGLEWVSVISSDVGSIYYADSVKGRFTISRDNSKNTLYLQMNSLRAEDTAVYYCAKDRSRDMEVDFDYWGQGTLVTVSS
VL: QSVLTQPPSASGTPGQRVTISCSGSSSNIGSNYVTWYQQLPGTAPKLLIYDSSQRPSGVPDRFSGSKSGTSASLAISGLRSEDEADYYCGTWDYSLNGYVFGGGTKLTVL
notes: Variant of P015042v1, tested as IgG; also called HC G55 substituted with V
B2: P015042v1-2 (antibody, V domains shown)
VH: B1 VH with V55K
VL: B1 VL
notes: Variant of P015042v1, tested as IgG; also called HC G55 substituted with K
B3: P015016 scFv (scFv, V domains shown)
VH: EVQLLESGGGLVQTGGSLRLSCAASGFTFSDYAMSWVRQAPGKGLEWVSAISHGGSSKYYADSVKGRFTISRDNSKNTLYLQMNSLRAEDTAVYYCARVSLDFDYWGQGTLVAVSS
VL: QSVLTQPPSASGTPGQRVTISCSGSSSNIGSNTFNWYQQLPGTAPKLLIYADSHRPSGVPDRFSGSKSGTSASLAISGLRSEDEADYYCAAWDASLSAYVFGGGTKLTVL
notes: HA-tagged scFv
B4: P015017 scFv (scFv, V domains shown)
VH: EVQLLESGGGLVQPGGSLRLSCAASGFTFSGYAMSWVRQAPGKGLEWVSVISPGSGSKYYADSVRGRFTVSRDNSKNTLYLQMNSLRAEDTAVYYCARYPLLRYAGALYSAYAMDVWGQGTLVTVSS
VL: B1 VL with T35S, D51A, S52N, Q54H, T91A, Y94S
notes: HA-tagged scFv
B5: P015039 scFv (scFv, V domains shown)
VH: EVQLLESGGGLVQPGGSLRLSCAASGFTFSDYAMSWVRQAPGKGLEWVSWISPGGGNTYYADSVKGRFTISRDNSKNTLYLQMNSLRAEDTAVYYCAKGALMCLSATCSSDYGMDVWGQGTLVTVSS
VL: B1 VL with S23T, S31N, Y33A, T35S, D51S, S52D, S53N
notes: HA-tagged scFv
B6: P015004 scFv (scFv, V domains shown)
VH: EVQLLESGGGLVQPGGSLRLSCAASGFTFSDYAMAWVRQAPGKGLEWVSIIYPGDSETIYSPSFEGRFTISRDNSKNTLYLQMNSLRAEDTAVYYCARDTYWEGYFDLWGQGTLVTVSS
VL: EIVLTQSPGTLSLSPGERATLSCRASQGISNYLAWYQQKPGQAPRLLIYDASNLESGIPDRFSGSGSGTDFTLTISRLEPEDFAVYYCQQYANLPYTFGQGTKVEIK
notes: HA-tagged scFv
B7: P015018 scFv (scFv, V domains shown)
VH: EVQLLESGGGLVQPDGSMRLICAASGFTFSSYAKHWVRQAPGKGLEWVSEIYTSGSTNYNPSLKSRFTISRDNSKNTLYLQMNSLRAEDTAVYYCARDTWWEGYFDLWGQGTLVTVSS
VL: B6 VL with G28S, I29V, N31T, N53S, Y91S, A92Y, Y96H
notes: HA-tagged scFv
B8: P015042 scFv (scFv, V domains shown)
VH: B1 VH with V55G
VL: B1 VL with N97S
notes: HA-tagged scFv
B9: P015044 scFv (scFv, V domains shown)
VH: EVQLLESGGGLVQPGGSLRLSCAASGFTFSNYAMHWVRQAPGKGLEWVSIIYPDDDTRYNPSFRGRFTISRDNSKNTLYLQMNSLRAEDTAVYYCARDLLYAGDYWGQGTLVTVSS
VL: QSVLTQPPSASGTPGQRVTISCGGNNIESKAVHWYQQLPGTAPKLLIYANNKRPSGVPDRFSGSKSGTSASLAISGLRSEDEADYYCQSYDSNKVVFGGGTKLTVL
notes: HA-tagged scFv
B10: P015020 scFv (scFv, V domains shown)
VH: EVQLLESGGGLVQPGGSLRLSCAASGFTFSGYYMSWVRQAPGKGLEWVSVISHDGSSTYYADSVKGRFTISRDNSKNTLYLQMNSLRAEDTAVYYCAKVKYIFDYWGQGTLVTVSS
VL: B3 VL with S23T, S31N, F34V, H54N, A90D, A91T, A94S, S97N
notes: HA-tagged scFv
B11: P015022 scFv (scFv, V domains shown)
VH: B10 VH with G31N, Y33D, V50S, H53S, D54N, S56G, V99C, K100L, Y101L, I102Q
VL: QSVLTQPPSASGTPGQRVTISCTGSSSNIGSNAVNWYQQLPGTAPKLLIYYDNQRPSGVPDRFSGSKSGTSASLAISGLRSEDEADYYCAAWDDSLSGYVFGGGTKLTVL
notes: HA-tagged scFv
B12: P015023 scFv (scFv, V domains shown)
VH: EVQLLESGGGLVQPGGSLRLSCAASGFTFSGYDMSWVRQAPGKGLEWVSGISHDGRSKYYADSVKGRFTVSRDNSKNTLYLQMNSLRAEDTAVYYCAKDVPFKMRFIFDYWGQGTLVTVSS
VL: B3 VL with I20L, S23T, F34V, N35Y, H54Q, A90G, A91S, A94S, S97N
notes: HA-tagged scFv
B13: P015024 scFv (scFv, V domains shown)
VH: EVQLLESGGGLVQPGGSLRLSCAASGFTFSDYYMSWVRQAPGKGLEWVSLISPGSDSKYYADSVKGRFTISRDNSKNTLYLQMNSLRAEDTAVYYCAKIEPDFDYWGQGTLVTVSS
VL: B3 VL with A91T, A94Y
notes: HA-tagged scFv
B14: P015028 scFv (scFv, V domains shown)
VH: EVQLLESGGGMVQTGGSLRLSCAASGFTFSDYAMSWVRQAPGKGLEWVSAISYDNGNTYYADSVKGRFTISRDNSKNALYLQMNSLRAEDTAVYYCAKVNHRFDYWGQGTLVTVSS
VL: B3 VL with D52N, A91S, A98G
notes: HA-tagged scFv
B15: P015014 scFv (scFv, V domains shown)
VH: EVQLLESGGGLVQPGGSLRLSCAVSGFTFSSYSMSWVRQAPGKGLEWVSAISPGDSNKYYADSVKGRFTISRDNSKNTLYLQINSLRAEDTAVYYCARTFPYFDYWGQGTLVTVSS
VL: B1 VL with Q16E, G24S, T35N, S52N, T91S, Y94D, N97S
notes: HA-tagged scFv
B16: P015004-vc-PAB-MMAE (antibody, IgG1, V domains shown)
VH: B6 VH
VL: B6 VL
modifications: maleimidocaproyl-valine-citrulline-p-aminobenzyloxycarbonyl monomethyl auristatin E on cysteine sulfhydryls of reduced disulfides; positions not given; average 3.0 drugs per antibody
B17: P015043-vcPAB-MMAE (antibody, IgG1, V domains shown)
VH: B13 VH with D31N, Y33D, L50W, S55G, D56S, K58I, I99T, E100L, P101T, D102R
VL: B1 VL with S23T, S31N, Y33N, T35S, D51Y, S52D, Q54H, Y94S, N97S
modifications: maleimidocaproyl-valine-citrulline-p-aminobenzyloxycarbonyl monomethyl auristatin E on cysteine sulfhydryls of reduced disulfides; positions not given; DAR 3.32

Target: T1, human ROR1 (human, UniProt Q01973 30-403, limits assumed)
T1 construct: also called human ROR1 protein
Assay: SPR (Biacore 3000), human ROR1 on CM5 chip, IgG injected, 1:1 Langmuir
Method: (§1) To more quantitatively analyze the binding ability of the anti-ROR1 antibody to ROR1, SPR (surface plasmon resonance) was performed. A Biacore 3000 device (GE Healthcare) was used. Using the amine coupling method, human ROR1 or mouse ROR1 was diluted with 10 mM sodium acetate, pH 4.5 and immobilized on a CM5 sensor chip (GE Healthcare) at 300 response units (RU). The activated portion remaining on the surface of the sensor chip was deactivated by adding 1 M ethanolamine-HCl (pH 8.5).

T1 sequence (Q01973 30-403 limits assumed): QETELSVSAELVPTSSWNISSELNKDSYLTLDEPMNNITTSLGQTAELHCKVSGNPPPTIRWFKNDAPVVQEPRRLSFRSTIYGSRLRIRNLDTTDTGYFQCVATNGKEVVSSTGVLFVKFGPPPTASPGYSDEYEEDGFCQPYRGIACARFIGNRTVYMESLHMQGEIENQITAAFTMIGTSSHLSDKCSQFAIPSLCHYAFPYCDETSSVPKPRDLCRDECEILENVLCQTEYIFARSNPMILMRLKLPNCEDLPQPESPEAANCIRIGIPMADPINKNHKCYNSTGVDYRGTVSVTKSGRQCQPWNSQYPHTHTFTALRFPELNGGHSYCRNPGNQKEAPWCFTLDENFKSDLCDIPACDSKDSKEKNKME

Row | Binder | Kd | koff | kon
1 | B1 | 0.033 nM | 7.22e-05 s⁻¹ | 2.19e+06 M⁻¹ s⁻¹
2 | B2 | 0.0152 nM | 4.08e-05 s⁻¹ | 2.66e+06 M⁻¹ s⁻¹

Target: T2, mouse ROR1 (mouse, UniProt Q9Z139 30-403, limits assumed)
T2 construct: also called mouse ROR1 protein
Assay: SPR (Biacore 3000), mouse ROR1 on CM5 chip, IgG injected, 1:1 Langmuir
Method: as §1

T2 sequence (Q9Z139 30-403 limits assumed): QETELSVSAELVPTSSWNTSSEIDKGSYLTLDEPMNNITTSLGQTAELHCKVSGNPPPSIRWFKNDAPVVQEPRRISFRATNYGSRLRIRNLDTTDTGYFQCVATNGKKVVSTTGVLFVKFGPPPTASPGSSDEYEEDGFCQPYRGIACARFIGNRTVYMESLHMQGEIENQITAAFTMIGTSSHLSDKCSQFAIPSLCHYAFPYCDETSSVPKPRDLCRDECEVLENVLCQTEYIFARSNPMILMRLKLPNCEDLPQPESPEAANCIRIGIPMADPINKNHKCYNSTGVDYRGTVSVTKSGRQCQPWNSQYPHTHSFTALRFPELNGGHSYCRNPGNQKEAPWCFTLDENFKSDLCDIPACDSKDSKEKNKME

Row | Binder | Kd | koff | kon
3 | B1 | 0.192 nM | 0.00043 s⁻¹ | 2.24e+06 M⁻¹ s⁻¹
4 | B2 | 0.0831 nM | 0.000226 s⁻¹ | 2.71e+06 M⁻¹ s⁻¹

Target: T3, Ig-like (human, UniProt Q01973)
T3 construct: Ig-like domain, His tag; also called Ig-like domain; human ROR1-immunoglobulin domain
Assay: scFv ELISA on coated domain, anti-HA-HRP, OD450
Method: (§2) Thereafter, the plate was treated with each scFv and reacted for 2 hours, followed by washing four times using PBST and distilled water. After binding at room temperature for 1 hour using an HRP-conjugated anti-HA antibody (Roche, 12013819001, Anti-HA-Peroxidase, High Affinity) capable of binding to the HA tag, washing was performed six times using PBST and distilled water. After color development by adding TMB substrate solution (Thermo Scientific, 34029, 1-Step™ Ultra TMB-ELISA Substrate Solution), the color reaction was stopped with stop solution (Invitrogen, SS04, ELISA Stop Solution), and the absorbance was measured at OD 450 nm. The scFv binding to each domain was analyzed through ELISA.

T3 sequence (Q01973 39-151 limits assumed): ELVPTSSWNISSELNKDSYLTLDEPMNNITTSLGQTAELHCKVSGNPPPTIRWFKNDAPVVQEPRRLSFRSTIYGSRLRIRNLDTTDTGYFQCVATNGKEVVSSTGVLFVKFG

Row | Binder | binding result
5 | B3 | binds
6 | B4 | binds
7 | B5 | binds
8 | B6 | no binding
9 | B7 | no binding

Target: T4, FZD (human, UniProt Q01973)
T4 construct: frizzled domain, His tag; also called Frizzled domain; human ROR1-frizzled domain
Assay: scFv ELISA on coated domain, anti-HA-HRP, OD450
Method: as §2

T4 sequence (Q01973 165-305 limits assumed): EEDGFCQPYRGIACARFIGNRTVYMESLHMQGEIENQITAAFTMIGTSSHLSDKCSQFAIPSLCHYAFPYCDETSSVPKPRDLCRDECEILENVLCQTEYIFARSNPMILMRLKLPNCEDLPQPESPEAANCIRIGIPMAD

Row | Binder | binding result
10 | B3 | no binding
11 | B4 | no binding
12 | B6 | no binding
13 | B8 | no binding
14 | B9 | no binding
15 | B7 | no binding
16 | B10 | no binding
17 | B11 | no binding
18 | B12 | no binding
19 | B13 | no binding
20 | B14 | no binding

Target: T5, FZD+KRD (human, UniProt Q01973)
T5 construct: frizzled plus kringle domains, His tag; also called FK domain; human ROR1-frizzled-kringle domain
Assay: scFv ELISA on coated domain, anti-HA-HRP, OD450
Method: as §2

T5 sequence (Q01973 165-395 limits assumed): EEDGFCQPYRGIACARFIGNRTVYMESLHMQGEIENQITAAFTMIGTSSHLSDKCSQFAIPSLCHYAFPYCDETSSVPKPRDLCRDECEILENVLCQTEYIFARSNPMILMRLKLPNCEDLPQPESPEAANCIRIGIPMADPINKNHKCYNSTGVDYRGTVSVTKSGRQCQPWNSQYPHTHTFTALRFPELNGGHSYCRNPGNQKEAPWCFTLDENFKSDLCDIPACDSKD

Row | Binder | binding result
21 | B3 | no binding
22 | B4 | no binding
23 | B5 | no binding
24 | B6 | no binding
25 | B8 | no binding
26 | B9 | no binding
27 | B15 | no binding
28 | B7 | no binding
29 | B10 | no binding
30 | B11 | no binding
31 | B12 | no binding
32 | B13 | no binding
33 | B14 | no binding

Target: ROR1 expressed on cell surface (Jeko-1 cell line, AMB-LC-0003T and AMB-LC-0002T patient-derived lung cancer … (human, UniProt Q01973 30-937))
Assay: cell-based or functional assay

Chain of ROR1 expressed on cell surface (Jeko-1 cell line, AMB-LC-0003T and AMB-LC-0002T patient-derived lung cancer … (Q01973 30-937): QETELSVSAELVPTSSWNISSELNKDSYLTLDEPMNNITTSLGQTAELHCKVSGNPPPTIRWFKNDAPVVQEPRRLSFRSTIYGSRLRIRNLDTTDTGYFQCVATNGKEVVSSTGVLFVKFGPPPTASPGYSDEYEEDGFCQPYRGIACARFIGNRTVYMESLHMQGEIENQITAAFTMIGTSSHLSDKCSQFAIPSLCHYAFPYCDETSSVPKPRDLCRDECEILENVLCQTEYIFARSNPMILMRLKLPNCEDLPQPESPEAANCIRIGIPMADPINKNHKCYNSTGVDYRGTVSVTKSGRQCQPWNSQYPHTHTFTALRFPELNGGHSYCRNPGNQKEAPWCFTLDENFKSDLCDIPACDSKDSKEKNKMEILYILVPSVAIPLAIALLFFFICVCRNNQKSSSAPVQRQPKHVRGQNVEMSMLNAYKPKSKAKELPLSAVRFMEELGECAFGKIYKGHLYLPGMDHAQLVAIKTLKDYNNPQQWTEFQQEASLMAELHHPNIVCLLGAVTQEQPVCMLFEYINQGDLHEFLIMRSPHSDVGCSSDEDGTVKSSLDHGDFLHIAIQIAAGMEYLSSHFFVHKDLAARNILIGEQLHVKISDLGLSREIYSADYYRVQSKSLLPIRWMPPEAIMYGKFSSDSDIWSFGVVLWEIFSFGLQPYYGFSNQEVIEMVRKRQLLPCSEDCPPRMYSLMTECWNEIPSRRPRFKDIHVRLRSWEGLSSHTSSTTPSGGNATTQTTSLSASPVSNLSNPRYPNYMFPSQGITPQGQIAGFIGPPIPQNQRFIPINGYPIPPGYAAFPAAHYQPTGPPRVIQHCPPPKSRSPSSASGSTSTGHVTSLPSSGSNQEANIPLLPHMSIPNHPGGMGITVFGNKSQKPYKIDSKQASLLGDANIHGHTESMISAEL

Row | Binder | Fold Change of IC50, AMB-LC-0002T/AMB-LC-0003T | IC50 (nM), spheroid volume after 6 days of treatment, AMB-LC-0003T (high ROR1 expression) | IC50 (nM), spheroid volume, AMB-LC-0002T (very low ROR1 expression)
34 | B16 | 15 fold | 10.6 nM | 160 nM
35 | B17 | 4.8 fold | 34.6 nM | 165 nM

Target: T1, human ROR1
Assay: ELISA, IgG on coated human ROR1, OD450
Method: (§3) A 96-well plate was coated at 4° C. for 16 hours with each of human ROR1 and mouse ROR1 proteins at a concentration of 2 μg/ml and then blocked using […]. […] After washing with PBST and distilled water, binding at room temperature for 1 hour using a goat-derived HRP-conjugated anti-human antibody (Invitrogen, 31482, Goat anti-Human IgG F(ab′)₂ Secondary Antibody, HRP) and then washing again using PBST and distilled water were performed. After color development by adding TMB substrate solution (Thermo Scientific, 34029, 1-Step™ Ultra TMB-ELISA Substrate Solution), the color reaction was stopped with stop solution (Invitrogen, SS04, ELISA Stop Solution), and the absorbance was measured at OD 450 nm. It was confirmed that the anti-ROR1 antibody of the present invention and the modified antibody thereof with improved biological and physical properties […] to human ROR1 and mouse ROR1 (FIG. 2).

Row | Binder | EC50 (read off the curve)
36 | B1 | ~0.5 nM
37 | B2 | ~0.5 nM

Target: T2, mouse ROR1
Assay: ELISA, IgG on coated mouse ROR1, OD450
Method: as §3

Row | Binder | EC50 (read off the curve)
38 | B1 | ~0.3 nM
39 | B2 | ~0.3 nM
